Experimental findings from PMC9896810, “Crk proteins activate the Rap1 guanine nucleotide exchange factor C3G by segregated adaptor-dependent and -independent mechanisms” (Cell Communication and Signaling : CCS, 2023) are described below.

The target of assay [1] is T1, CrkL, full-length (human) (human, UniProt P46109 1-303).
T1 construct: Monomer by sedimentation velocity and DLS (theoretical mass 33.7 kDa); Purification 'in a similar manner' as C3G would include TEV cleavage of the tag; also called Crk-like protein; wild type CrkL; source: E. coli BL21 (DE3), purified (His-tagged, purified in a similar manner as C3G)
Put plainly: fluorescence polarisation; fluorescein peptides at 0.2 µM titrated with CrkL; 20 mM Tris-HCl, 150 mM NaCl, pH 7.5, 0.1 mg/ml BSA; 1:1 model; apparent kd. The settings on record: both partners purified. On the technique in general: Polarisation of emitted light reports the rotation of a fluorescent probe.

Assay [2] has as its target T2, C3G (full-length, residues 4-1077) (human, UniProt Q13905-1 4-1077).
T2 construct: also called C3G WT; RapGEF1; source: E. coli BL21 (DE3), purified (IMAC, TEV digestion, reversed IMAC, SEC); not shown: His, N-terminal, cleaved; Halo, N-terminal, cleaved
T2 sequence (looked up): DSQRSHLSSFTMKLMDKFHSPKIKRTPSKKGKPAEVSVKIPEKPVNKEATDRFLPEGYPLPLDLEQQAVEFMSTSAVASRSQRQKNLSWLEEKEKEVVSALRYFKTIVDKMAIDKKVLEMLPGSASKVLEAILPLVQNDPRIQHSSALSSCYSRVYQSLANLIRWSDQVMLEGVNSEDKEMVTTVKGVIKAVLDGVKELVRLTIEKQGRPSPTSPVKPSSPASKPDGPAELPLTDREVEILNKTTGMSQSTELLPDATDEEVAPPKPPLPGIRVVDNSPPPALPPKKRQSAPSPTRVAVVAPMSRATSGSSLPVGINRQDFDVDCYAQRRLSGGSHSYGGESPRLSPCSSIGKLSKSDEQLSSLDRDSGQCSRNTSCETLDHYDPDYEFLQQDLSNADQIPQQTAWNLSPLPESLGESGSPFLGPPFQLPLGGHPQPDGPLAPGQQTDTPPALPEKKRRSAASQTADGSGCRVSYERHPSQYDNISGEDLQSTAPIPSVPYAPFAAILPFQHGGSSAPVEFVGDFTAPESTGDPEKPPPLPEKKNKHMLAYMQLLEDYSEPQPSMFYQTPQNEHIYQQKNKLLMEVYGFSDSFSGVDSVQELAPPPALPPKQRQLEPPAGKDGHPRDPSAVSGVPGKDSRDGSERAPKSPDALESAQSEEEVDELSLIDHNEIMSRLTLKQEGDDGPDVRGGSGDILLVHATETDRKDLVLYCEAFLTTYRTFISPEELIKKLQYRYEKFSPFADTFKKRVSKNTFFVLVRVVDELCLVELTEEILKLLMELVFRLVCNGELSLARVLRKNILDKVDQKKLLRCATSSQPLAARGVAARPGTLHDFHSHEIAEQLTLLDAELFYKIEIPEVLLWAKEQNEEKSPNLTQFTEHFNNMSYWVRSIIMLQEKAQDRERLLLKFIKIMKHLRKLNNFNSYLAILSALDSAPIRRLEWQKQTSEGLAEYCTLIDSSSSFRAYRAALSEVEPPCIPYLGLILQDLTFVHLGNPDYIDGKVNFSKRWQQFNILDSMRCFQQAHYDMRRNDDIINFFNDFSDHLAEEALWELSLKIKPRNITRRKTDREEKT
Put plainly: ITC; C3G or pC3G in the cell titrated with the Crk protein, 25 °C, 300 mM NaCl, pH 7.5; global fit of three titrations with SEDPHAT, three symmetric binding sites, microscopic kd. As to conditions: both partners purified. In general terms: ITC needs no label: the signal is the heat of the interaction.

The target of assay [3] is T3, C3G full-length wild type (human, isoform a, residues 4-1077) (human, UniProt Q13905-1 4-1077).
T3 sequence (looked up): T2 sequence (looked up)
Put plainly: cell-based or functional assay.

Assay [4] has as its target T4, Src-phosphorylated C3G (pC3G), wild type (human, UniProt Q13905-1 4-1077, phosphotyrosines (phosphorylated in vitro by Src; sites not stated)).
T4 sequence (looked up): T2 sequence (looked up)
In words: cell-based or functional assay.

Assay [5] deals with T1, CrkL, full-length (human). In words: ITC; single-PRM mutants of C3G in the cell titrated with full-length CrkL or CrkL-SH3N; 25 °C; 1:1 model in SEDPHAT; N is the competent fraction of C3G. As to conditions: both partners purified.
A further assay concerns the target T5, CrkL (full-length) (human, UniProt P46109 1-303).
T5 construct: human CrkL, residues 1-303, in pETEV15b; also called Crk-like protein; source: E. coli BL21 (DE3), purified (IMAC, TEV digestion, SEC); not shown: His, N-terminal, cleaved
Put plainly: fluorescence polarisation; fluorescein-labelled peptide at 0.2 µM titrated with CrkL or CrkL W160S; 20 mM Tris-HCl, 150 mM NaCl, pH 7.5, 0.1 mg/ml BSA; 1:1 binding model; apparent kd. The settings on record: both partners purified.

For the next assay, the target named is T6, CrkL-W160S (human, UniProt P46109 1-303, W160S).
T6 construct: human CrkL, residues 1-303, point mutant W160S, in pETEV15b; source: E. coli BL21 (DE3), purified (IMAC, TEV digestion, SEC); not shown: His, N-terminal, cleaved
The description is as above. As to conditions: both partners purified.

Changes are numbered by the printed parent chain. Names and notes keep the numbering of the source. No end group written: not given here. fluorescein = N-terminal fluorescein probe A value given as a limit tells only on which side of the number the result lay.

T6 sequence (P46109 whole entry W160S, the tested form may be a part): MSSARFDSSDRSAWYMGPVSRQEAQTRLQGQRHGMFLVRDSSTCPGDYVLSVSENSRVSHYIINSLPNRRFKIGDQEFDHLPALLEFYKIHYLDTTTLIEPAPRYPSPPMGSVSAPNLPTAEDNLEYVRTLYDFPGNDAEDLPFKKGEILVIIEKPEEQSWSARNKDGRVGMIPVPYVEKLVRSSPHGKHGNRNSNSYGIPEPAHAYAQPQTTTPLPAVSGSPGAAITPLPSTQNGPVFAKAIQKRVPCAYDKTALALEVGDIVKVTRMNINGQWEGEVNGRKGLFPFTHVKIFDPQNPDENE
T5 sequence (P46109 whole entry, the tested form may be a part): as the sequence (P46109 whole entry W160S, the tested form may be a part) above, with S160W counted along it

B1: C3G P1 peptide (residues 280-293), fluorescein-labeled (peptide, UniProt Q13905-1 280-293, looked up)
peptide: fluorescein-NSPPPALPPKKRQS
notes: Pro-rich motif P1 of human C3G, residues 280-293; source: synthetic peptide (custom synthesized, Thermo Scientific)
In the case of B1, the binding result in assay [1] is “binds”.

B2: CrkL-SH2-SH3N (domain or fragment, human, UniProt P46109 1-182, looked up)
chain: MSSARFDSSDRSAWYMGPVSRQEAQTRLQGQRHGMFLVRDSSTCPGDYVLSVSENSRVSHYIINSLPNRRFKIGDQEFDHLPALLEFYKIHYLDTTTLIEPAPRYPSPPMGSVSAPNLPTAEDNLEYVRTLYDFPGNDAEDLPFKKGEILVIIEKPEEQWWSARNKDGRVGMIPVPYVEKLV
notes: human CrkL, SH2-SH3N, residues 1-182, in pETEV15b; also called CrkL-SH2N-SH3N; source: E. coli BL21 (DE3), purified (IMAC, TEV digestion, SEC); not shown: His, N-terminal, cleaved
Regarding B2, the Kd in assay [2] is 2.2 µM.

B3: CrkL-SH2-SH3N (residues 1-182) (domain or fragment, human, UniProt P46109 1-182, looked up)
chain: B2 chain
Regarding B3, in assay [3], the “AC50 of the dose-response activation of the GEF activity of C3G (1 µM) on Rap1b:mant-dGDP” value (“AC50 … (1 µM) on Rap1b:mant-dGDP” below) is 15.8 µM and the “kmax of the dose-response activation of the GEF activity of C3G (1 µM) on Rap1b:mant-dGDP” value (from here on “kmax … (1 µM) on Rap1b:mant-dGDP”) is 8400 M⁻¹ s⁻¹. Also, in assay [4], the “AC50 of the dose-response activation of the GEF activity of pC3G (0.2 µM) on Rap1b:mant-dGDP” value (shortened to “AC50 … (0.2 µM) on Rap1b:mant-dGDP”) is 4.9 µM and the “kmax of the dose-response activation of the GEF activity of pC3G (0.2 µM) on Rap1b:mant-dGDP” value (“kmax … (0.2 µM) on Rap1b:mant-dGDP” below) was 0.0377 s^-1 µM^-1.

B4: CrkL-SH3N-SH3C (domain or fragment, human, UniProt P46109 125-303, looked up)
chain: LEYVRTLYDFPGNDAEDLPFKKGEILVIIEKPEEQWWSARNKDGRVGMIPVPYVEKLVRSSPHGKHGNRNSNSYGIPEPAHAYAQPQTTTPLPAVSGSPGAAITPLPSTQNGPVFAKAIQKRVPCAYDKTALALEVGDIVKVTRMNINGQWEGEVNGRKGLFPFTHVKIFDPQNPDENE
notes: human CrkL, SH3N-SH3C, residues 125-303, in pETEV15b; source: E. coli BL21 (DE3), purified (IMAC, TEV digestion, SEC); not shown: His, N-terminal, cleaved
B4: the Kd in assay [2] was 1.1 µM.

B5: CrkL-SH3N-SH3C (residues 125-303) (domain or fragment, human, UniProt P46109 125-303, looked up)
chain: B4 chain
Consider B5, for which, in assay [3], the “AC50 … (1 µM) on Rap1b:mant-dGDP” value stood at 19.8 µM and the “kmax … (1 µM) on Rap1b:mant-dGDP” value turned out to be 12900 M⁻¹ s⁻¹. In assay [4], the “AC50 … (0.2 µM) on Rap1b:mant-dGDP” value was 4.5 µM and the “kmax … (0.2 µM) on Rap1b:mant-dGDP” value was 0.0134 s^-1 µM^-1.

B6: C3G-PAAA (natural protein)
chain: DSQRSHLSSFTMKLMDKFHSPKIKRTPSKKGKPAEVSVKIPEKPVNKEATDRFLPEGYPLPLDLEQQAVEFMSTSAVASRSQRQKNLSWLEEKEKEVVSALRYFKTIVDKMAIDKKVLEMLPGSASKVLEAILPLVQNDPRIQHSSALSSCYSRVYQSLANLIRWSDQVMLEGVNSEDKEMVTTVKGVIKAVLDGVKELVRLTIEKQGRPSPTSPVKPSSPASKPDGPAELPLTDREVEILNKTTGMSQSTELLPDATDEEVAPPKPPLPGIRVVDNSPPPALPPKKRQSAPSPTRVAVVAPMSRATSGSSLPVGINRQDFDVDCYAQRRLSGGSHSYGGESPRLSPCSSIGKLSKSDEQLSSLDRDSGQCSRNTSCETLDHYDPDYEFLQQDLSNADQIPQQTAWNLSPLPESLGESGSPFLGPPFQLPLGGHPQPDGPLAPGQQTDTAAAAAEAKRRSAASQTADGSGCRVSYERHPSQYDNISGEDLQSTAPIPSVPYAPFAAILPFQHGGSSAPVEFVGDFTAPESTGDPEKAAPAAEAKNKHMLAYMQLLEDYSEPQPSMFYQTPQNEHIYQQKNKLLMEVYGFSDSFSGVDSVQELAPAAAAAPAQRQLEPPAGKDGHPRDPSAVSGVPGKDSRDGSERAPKSPDALESAQSEEEVDELSLIDHNEIMSRLTLKQEGDDGPDVRGGSGDILLVHATETDRKDLVLYCEAFLTTYRTFISPEELIKKLQYRYEKFSPFADTFKKRVSKNTFFVLVRVVDELCLVELTEEILKLLMELVFRLVCNGELSLARVLRKNILDKVDQKKLLRCATSSQPLAARGVAARPGTLHDFHSHEIAEQLTLLDAELFYKIEIPEVLLWAKEQNEEKSPNLTQFTEHFNNMSYWVRSIIMLQEKAQDRERLLLKFIKIMKHLRKLNNFNSYLAILSALDSAPIRRLEWQKQTSEGLAEYCTLIDSSSSFRAYRAALSEVEPPCIPYLGLILQDLTFVHLGNPDYIDGKVNFSKRWQQFNILDSMRCFQQAHYDMRRNDDIINFFNDFSDHLAEEALWELSLKIKPRNITRRKTDREEKT
Turning to B6, the Kd in assay [5] was approximately 1 µM.

B7: C3G-APAA (natural protein)
chain: B6 chain with P280A, P281A, L283A, P284A, K286A, A450P, A451P, A453L, A454P, A456K
B7 had a Kd in assay [5] of approximately 1 µM.

B8: P1 (Fluo-280-293) (peptide)
peptide: fluorescein-NGPPPALPPKKRQS
notes: P1 Pro-rich motif of human C3G, residues 280-293; also called P1 peptide of C3G; source: synthetic peptide (custom synthesized, Thermo Scientific)
In the case of B8, the Kd with CrkL (full-length) was 1.4 µM; with CrkL-W160S, approximately 490 µM.

B9: P3 (Fluo-537-550) (peptide)
peptide: fluorescein-PEKPPPLPEKKNKH
notes: P3 Pro-rich motif of human C3G, residues 537-550; also called P3 peptide of C3G; source: synthetic peptide (custom synthesized, Thermo Scientific)
With B9, the values for the Kd in the assay with CrkL (full-length) and with CrkL-W160S were 2.2 µM and approximately 425 µM, respectively.

B10: P4 (Fluo-605-618) (peptide)
peptide: fluorescein-LAPPPALPPKQRQL
notes: P4 Pro-rich motif of human C3G, residues 605-618; also called P4 peptide of C3G; source: synthetic peptide (custom synthesized, Thermo Scientific)
Turning to B10, the Kd in the assay with CrkL (full-length) was 3 µM; with CrkL-W160S, approximately 415 µM.

B11: P2 (Fluo-450-463) (peptide)
peptide: fluorescein-TDTPPALPEKKRRS
notes: P2 Pro-rich motif of human C3G, residues 450-463; also called P2 peptide of C3G; source: synthetic peptide (custom synthesized, Thermo Scientific)
With B11, the Kd with CrkL (full-length) was 2.2 µM; with CrkL-W160S, more than 4000 µM.

B12: CrkII (full-length) (natural protein, human, UniProt P46108-1 1-304, looked up)
chain: MAGNFDSEERSSWYWGRLSRQEAVALLQGQRHGVFLVRDSSTSPGDYVLSVSENSRVSHYIINSSGPRPPVPPSPAQPPPGVSPSRLRIGDQEFDSLPALLEFYKIHYLDTTTLIEPVSRSRQGSGVILRQEEAEYVRALFDFNGNDEEDLPFKKGDILRIRDKPEEQWWNAEDSEGKRGMIPVPYVEKYRPASASVSALIGGNQEGSHPQPLGGPEPGPYAQPSVNTPLPNLQNGPIYARVIQKRVPNAYDKTALALEVGELVKVTKINVSGQWEGECNGKRGHFPFTHVRLLDQQNPDEDFS
notes: human CrkII, residues 1-304, in pETEV15b; source: E. coli BL21 (DE3), purified (IMAC, TEV digestion, SEC); not shown: His, N-terminal, cleaved
B12 yielded a Kd in assay [2] of 2.7 µM.

B13: CrkII (human) (natural protein, UniProt P46108-1 1-304, looked up)
chain: B12 chain
Take B13: in assay [3], the “AC50 … (1 µM) on Rap1b:mant-dGDP” value came to 65.7 µM and the “kmax … (1 µM) on Rap1b:mant-dGDP” value turned out to be 7200 M⁻¹ s⁻¹. Besides, in assay [4], the “AC50 … (0.2 µM) on Rap1b:mant-dGDP” value is 2.6 µM and the “kmax … (0.2 µM) on Rap1b:mant-dGDP” value worked out at 0.0223 s^-1 µM^-1.
